The values below come from patent US11498974 (BIOARCTIC, dated 2022).

The target of assay [1] is Aβ protofibrils (UniProt P05067). The experiment in a line: inhibition ELISA; reference: Aβ monomers. Background: An ELISA detects its analyte on a solid surface through an enzyme-linked reagent.
Assay [2] deals with recombinant transferrin receptor protein (Sinobiological) (UniProt Q62351). The experiment in a line: competition TfR ELISA; references: 8D3 and 8D3-F(ab′)2-h158.
For assay [3] the target is unchanged. The experiment in a line: competition ELISA on coated recombinant TfR; competitor 2.5 nM biotinylated scFv8D3.
The target is the same in assay [4]. The assay can be described thus: TfR competition ELISA, FIG. 2D; reference: RmAb158-scFv8D3.
For assay [5] the target is unchanged. The assay can be described thus: competition TfR ELISA; reference: RmAb158-scFv8D3.
For assay [6], the target named is T1, recombinant transferrin receptor protein (Sinobiological) (UniProt Q62351 89-763, limits assumed).
T1 construct: Construct limits are unknown; also called TfR; recombinant TfR protein
The experiment in a line: TfR competition ELISA, FIG. 2D; reference: RmAb158-scFv8D3.

Assay [7] addresses T1, recombinant transferrin receptor …. The assay can be described thus: competition ELISA on coated recombinant TfR; competitor 2.5 nM biotinylated scFv8D3.

Chain of recombinant transferrin receptor protein (Sinobiological) (UniProt Q62351) (Q62351 89-763 limits assumed): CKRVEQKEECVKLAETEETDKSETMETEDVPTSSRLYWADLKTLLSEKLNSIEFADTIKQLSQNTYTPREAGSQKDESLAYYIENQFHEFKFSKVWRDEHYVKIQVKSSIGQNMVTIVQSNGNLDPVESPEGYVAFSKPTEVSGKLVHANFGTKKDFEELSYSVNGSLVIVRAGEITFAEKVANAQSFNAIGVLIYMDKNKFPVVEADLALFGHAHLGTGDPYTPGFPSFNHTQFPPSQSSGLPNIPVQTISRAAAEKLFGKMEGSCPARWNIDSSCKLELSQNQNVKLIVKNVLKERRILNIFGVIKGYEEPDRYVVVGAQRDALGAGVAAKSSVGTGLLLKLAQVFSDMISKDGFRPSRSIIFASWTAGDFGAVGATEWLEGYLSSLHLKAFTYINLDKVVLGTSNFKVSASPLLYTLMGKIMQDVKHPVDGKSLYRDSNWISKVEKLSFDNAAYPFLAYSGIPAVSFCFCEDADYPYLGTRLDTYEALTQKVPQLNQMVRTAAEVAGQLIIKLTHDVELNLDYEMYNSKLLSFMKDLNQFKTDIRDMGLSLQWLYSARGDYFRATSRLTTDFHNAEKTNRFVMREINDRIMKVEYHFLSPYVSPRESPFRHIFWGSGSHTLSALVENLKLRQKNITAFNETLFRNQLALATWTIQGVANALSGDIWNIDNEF
T1 sequence (Q62351 89-763 limits assumed): as above

With RmAb158-scFv8D3 (bispecific antibody), the fold stronger binding to protofibrils than to monomers in assay [1] stood at 500 fold. For the same molecule, the fold lower avidity in assay [2] was 10 fold. The equilibrium dissociation constant (Kd) in assay [3] was 8 nM.

As to “chemically conjugated fusion protein 8D3-F(ab′)2-h158 (bispecific antibody)”, in assay [4], the fold stronger binding was found to be 10 fold. Besides, the Kd in assay [3] amounted to 0.69 nM.

On to scFv8D3, for which, in assay [5], the fold higher Kd came to 2 fold. Besides, the Kd in assay [3] is 15 nM.

B1: anti-TfR antibody 8D3 (antibody, V domains shown)
VH: EVQLVESGGGLVQPGNSLTLSCVASGFTFSNYGMHWIRQAPKKGLEWIAMIYYDSSKMNYADTVKGRFTISRDNSKNTLYLEMNSLRSEDTAMYYCAVPTSHYVVDVWGQGVSVTVSS
VL: DIQMTQSPASLSASLEEIVTITCQASQDIGNWLAWYQQKPGKSPQLLIYGATSLADGVPSRFSGSRSGTQFSLKISRVQVEDIGIYYCLQAYNTPWTFGGGTKLELK
Regarding B1, in assay [6], the fold stronger binding is roughly 10 fold. Moreover, the Kd in assay [7] was 0.8 nM.

Usually Kd stands for the constant that tells how readily two partners part at equilibrium.
